Laboratory results as given in publication PMC3355127.

What was measured:
[1] = whole-blood perfusion over collagen, 2500 s-1, platelet coverage; conditions: glycan lost; control: blood of WT-VWF expressing mice
[2] = plasma VWF:Ag ELISA after hydrodynamic injection in VWF-/- mice; conditions: glycan lost; control: WT mVwf cDNA
[3] = SDS/2% agarose multimer gel of plasma, densitometry; conditions: glycan lost; control: WT mVwf cDNA
[4] = VWF antigen ELISA, COS-7 supernatant; conditions: glycan lost; control: WT mVwf
[5] = VWF antigen ELISA, COS-7 lysate (intracellular retention); conditions: glycan lost; control: WT mVwf
[6] = in vivo NHS-biotin labelling, residual biotinylated VWF in plasma; conditions: glycan lost; control: WT-mVWF

Substance | other: thrombus formation on collagen under flow, other: platelet surface coverage [1] | expression_or_secretion, other: VWF:Ag, % of normal murine plasma [2] | oligomerisation [3] | expression_or_secretion [4] | localisation_or_trafficking [5] | degradation_or_half_life, half_life [6]
murine VWF (mVWF): S1486A | decreases, 11.6±1.0 vs 15.8±0.9 | no change | no change |  |  | 
murine VWF (mVWF): S1486A/S1487A |  | no change | no change |  |  | 
murine VWF (mVWF): S1487A |  | no change | no change |  |  | 
murine VWF (mVWF): T1248A |  | no change | no change |  |  | 
murine VWF (mVWF): T1248A/T1255A/T1256A (cluster 1) |  | no change | no change |  |  | 
murine VWF (mVWF): T1255A | decreases, 8.2±1.2 vs 15.8±0.9 | no change | no change |  |  | 
murine VWF (mVWF): T1255A/T1256A | decreases, 6.0±0.9 vs 15.8±0.9 | decreases, 432±55 vs 833±76 | no change | no change | no change | decreases, 3.0±0.3 vs 6.1±1
murine VWF (mVWF): T1256A | decreases, 6.4±1.2 vs 15.8±0.9 | no change | no change |  |  | 
murine VWF (mVWF): T1468A |  | no change | no change |  |  | 
murine VWF (mVWF): T1468A/T1477A/S1486A/S1487A (cluster 2) |  | no change | no change |  |  | 
murine VWF (mVWF): T1477A |  | no change | no change |  |  | 
murine VWF (mVWF): T1679A |  | no change | no change |  |  | 
murine VWF (mVWF): T2298A |  | no change | no change |  |  | 
